± gives the uncertainty stated by the source.
Test: protein stability index of a GFP-peptide fusion (yeast GPS) (PSI 1-4); higher = more stable; sorted into four equal gates, so the index is relative within each strain
How it was run: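 Tiled 17-residue peptides from yeast proteins were fused downstream of GFP on a plasmid that also expresses Cherry, and the pooled library was carried in yeast. Mid-log cultures grown in leucine-free medium were sorted into four equal gates by GFP/Cherry fluorescence ratio. Plasmids from each gate were PCR-amplified and Illumina-sequenced, and reads were assigned to strains by barcodes. Each peptide's protein stability index is the sum, over gates, of the gate's read frequency multiplied by its gate number.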

KREGRNELQEERLKVPI [POP6]
protein stability index (pdr5∆): 3.37 ± 0.2

LKENNAILQKSLKNVTE [YIL149C/MLP2]
protein stability index (doa10∆): 2.67 ± 0.049 | protein stability index (pdr5∆): 2.57 ± 0.057 | protein stability index (san1∆): 2.89 ± 0.038 | protein stability index (ubr1∆): 2.75 ± 0.044

LTIDDLGVASFHGTSTK [FAS2]
protein stability index (doa10∆): 2.99 ± 0.063 | protein stability index (pdr5∆): 3.01 ± 0.071 | protein stability index (san1∆): 3.03 ± 0.06 | protein stability index (ubr1∆): 3.01 ± 0.047

YEMVIREKNALKRLAWQ [ISW2]
protein stability index (doa10∆): 2.08 ± 0.047 | protein stability index (pdr5∆): 2.5 ± 0.062 | protein stability index (san1∆): 2.32 ± 0.048 | protein stability index (ubr1∆): 2.37 ± 0.055

IASDGSECIVSIKSKVV [RRP42]
protein stability index (doa10∆): 3.1 ± 0.081 | protein stability index (pdr5∆): 3.12 ± 0.075 | protein stability index (san1∆): 2.7 ± 0.2 | protein stability index (ubr1∆): 3.12 ± 0.19

ATGKKSRGINKGHKFNN [RPL15A]
protein stability index (doa10∆): 2.5 ± 0.24 | protein stability index (pdr5∆): 2.69 ± 0.13 | protein stability index (san1∆): 2.34 ± 0.12 | protein stability index (ubr1∆): 2.17 ± 0.13

ENVKIINYLLTLAITTV [RPN2]
protein stability index (doa10∆): 2.95 ± 0.06 | protein stability index (pdr5∆): 3.03 ± 0.057 | protein stability index (san1∆): 2.56 ± 0.065 | protein stability index (ubr1∆): 2.99 ± 0.055

MGPLYQNFAEFMTKLLE [IRR1]
protein stability index (doa10∆): 2.27 ± 0.11 | protein stability index (pdr5∆): 1.82 ± 0.11 | protein stability index (san1∆): 3.03 ± 0.13 | protein stability index (ubr1∆): 2.04 ± 0.15

HARGGGAISAVAATNTP [SRP54]
protein stability index (doa10∆): 1.69 ± 0.12 | protein stability index (pdr5∆): 2.35 ± 0.12 | protein stability index (san1∆): 3.07 ± 0.12 | protein stability index (ubr1∆): 2.3 ± 0.12

KSSWRQEWLANLKLISV [SIR4]
protein stability index (doa10∆): 1.71 ± 0.057 | protein stability index (pdr5∆): 1.45 ± 0.042 | protein stability index (san1∆): 1.64 ± 0.16 | protein stability index (ubr1∆): 1.46 ± 0.045

IEDDGIIESHLIQLQNI [CSN9]
protein stability index (doa10∆): 2.77 ± 0.1 | protein stability index (pdr5∆): 3.17 ± 0.099 | protein stability index (san1∆): 2.97 ± 0.075 | protein stability index (ubr1∆): 2.76 ± 0.073

ERGFACIPLVGISVPFH [FAS1]
protein stability index (doa10∆): 1.34 ± 0.06 | protein stability index (pdr5∆): 1.32 ± 0.07 | protein stability index (san1∆): 1.22 ± 0.12 | protein stability index (ubr1∆): 1.21 ± 0.061

DTISAITHQLNNKFANK [RPC25]
protein stability index (pdr5∆): 2.42 ± 0.16

TTLNEMFRYKTNLYKLK [PUP3]
protein stability index (doa10∆): 3.06 ± 0.14 | protein stability index (pdr5∆): 2.66 ± 0.11 | protein stability index (san1∆): 1.76 ± 0.13 | protein stability index (ubr1∆): 2.08 ± 0.1

PVKLDENSANSTVASAL [SIR4]
protein stability index (doa10∆): 2.9 ± 0.13 | protein stability index (pdr5∆): 3.09 ± 0.081 | protein stability index (san1∆): 2.76 ± 0.09 | protein stability index (ubr1∆): 2.9 ± 0.074

ERLKQLTPNEIKELEHL [SWP82]
protein stability index (doa10∆): 2.83 ± 0.064 | protein stability index (pdr5∆): 2.84 ± 0.083 | protein stability index (san1∆): 2.73 ± 0.049 | protein stability index (ubr1∆): 2.7 ± 0.054

AELFNNDIKLFVDDTNV [PRP8]
protein stability index (doa10∆): 2.17 ± 0.065 | protein stability index (pdr5∆): 2.09 ± 0.053 | protein stability index (san1∆): 2.46 ± 0.054 | protein stability index (ubr1∆): 2.13 ± 0.034

PKELGGLGMISASHILI [PRP8]
protein stability index (doa10∆): 2.36 ± 0.072 | protein stability index (pdr5∆): 2.67 ± 0.053 | protein stability index (san1∆): 2.14 ± 0.084 | protein stability index (ubr1∆): 2.41 ± 0.047

TQGGNVNLDNTAVGKAA [RPT5]
protein stability index (doa10∆): 3.11 ± 0.053 | protein stability index (pdr5∆): 3.28 ± 0.052 | protein stability index (san1∆): 3.277 ± 0.032 | protein stability index (ubr1∆): 3.17 ± 0.038

SVFYNIANMVLPPEKIY [SIR2]
protein stability index (doa10∆): 1.78 ± 0.048 | protein stability index (pdr5∆): 1.77 ± 0.043 | protein stability index (san1∆): 1.81 ± 0.06 | protein stability index (ubr1∆): 1.55 ± 0.04

LSFVDIVLSKAASALDE [SIR4]
protein stability index (doa10∆): 1.84 ± 0.11 | protein stability index (pdr5∆): 2.8 ± 0.071 | protein stability index (san1∆): 2.59 ± 0.14 | protein stability index (ubr1∆): 2.21 ± 0.054

RQLTSLGSKKELGISLE [SNU114]
protein stability index (doa10∆): 3 ± 0.072 | protein stability index (pdr5∆): 3.17 ± 0.079 | protein stability index (san1∆): 3.14 ± 0.097 | protein stability index (ubr1∆): 3.36 ± 0.062

KAVKLRKSYKNQIADLS [ROX3]
protein stability index (doa10∆): 2.74 ± 0.1 | protein stability index (pdr5∆): 2.85 ± 0.07 | protein stability index (san1∆): 2.77 ± 0.095 | protein stability index (ubr1∆): 2.95 ± 0.037

CGLMTVIAKLNHNQFEC [RPB2]
protein stability index (doa10∆): 2.33 ± 0.09 | protein stability index (pdr5∆): 2.35 ± 0.078 | protein stability index (san1∆): 1.5 ± 0.12 | protein stability index (ubr1∆): 1.7 ± 0.15

VNAPLPTPFKVDDNVDF [RPN2]
protein stability index (doa10∆): 2.91 ± 0.077 | protein stability index (pdr5∆): 2.75 ± 0.051 | protein stability index (san1∆): 2.74 ± 0.08 | protein stability index (ubr1∆): 2.96 ± 0.086

VEPVTERTKLQEHTIFT [SNU114]
protein stability index (doa10∆): 2.2 ± 0.2 | protein stability index (pdr5∆): 2.35 ± 0.074 | protein stability index (san1∆): 1.8 ± 0.21

VVDVALKYPELSIKNSF [NUT1]
protein stability index (doa10∆): 3.04 ± 0.071 | protein stability index (pdr5∆): 2.94 ± 0.056 | protein stability index (san1∆): 2.97 ± 0.059 | protein stability index (ubr1∆): 2.77 ± 0.047

KPKKPKGRAYKRLLYTR [RPS30A]
protein stability index (doa10∆): 3.13 ± 0.098 | protein stability index (pdr5∆): 2.79 ± 0.11 | protein stability index (san1∆): 3.02 ± 0.086 | protein stability index (ubr1∆): 2.99 ± 0.055

EITDAYCFAKNDLFFNN [YMR129W/POM152]
protein stability index (doa10∆): 2.59 ± 0.059 | protein stability index (pdr5∆): 2.56 ± 0.063 | protein stability index (san1∆): 2.22 ± 0.071 | protein stability index (ubr1∆): 2.61 ± 0.056

SNIMSDSKKIKVDSPDD [GAL11]
protein stability index (doa10∆): 2.9 ± 0.078 | protein stability index (pdr5∆): 2.73 ± 0.079 | protein stability index (san1∆): 3.03 ± 0.072 | protein stability index (ubr1∆): 2.88 ± 0.061

NVPGVETANVASLNLLQ [RPL4A]
protein stability index (doa10∆): 2.71 ± 0.053 | protein stability index (pdr5∆): 3.05 ± 0.055 | protein stability index (san1∆): 2.86 ± 0.044 | protein stability index (ubr1∆): 2.87 ± 0.041

IDSQMDEASGTPDEDML [GRR1]
protein stability index (doa10∆): 2.93 ± 0.063 | protein stability index (pdr5∆): 2.96 ± 0.065 | protein stability index (san1∆): 2.85 ± 0.068 | protein stability index (ubr1∆): 3.02 ± 0.053

GAHKFLDTYLPEDLNSL [SIR2]
protein stability index (doa10∆): 1.85 ± 0.071 | protein stability index (pdr5∆): 1.88 ± 0.076 | protein stability index (san1∆): 1.56 ± 0.13 | protein stability index (ubr1∆): 1.81 ± 0.064

NDFTTKLINIKKFDISN [MED1]
protein stability index (doa10∆): 1.67 ± 0.08 | protein stability index (pdr5∆): 1.47 ± 0.096 | protein stability index (san1∆): 1.56 ± 0.28 | protein stability index (ubr1∆): 2.28 ± 0.27

VMLLGTPDANLISKPAK [UBP6]
protein stability index (pdr5∆): 3.28 ± 0.13 | protein stability index (san1∆): 2.98 ± 0.13 | protein stability index (ubr1∆): 3.32 ± 0.12

SSLNGTNAKIPQFDSTQ [SSN3]
protein stability index (doa10∆): 3.06 ± 0.08 | protein stability index (pdr5∆): 3 ± 0.093 | protein stability index (san1∆): 2.98 ± 0.067 | protein stability index (ubr1∆): 2.97 ± 0.063

PLLSNYASKINRAEGPE [RGR1]
protein stability index (doa10∆): 2.88 ± 0.12 | protein stability index (pdr5∆): 2.8 ± 0.1 | protein stability index (san1∆): 2.87 ± 0.12 | protein stability index (ubr1∆): 2.55 ± 0.082

NNEMKSLQRSKSSFVKE [SMC1]
protein stability index (pdr5∆): 3.25 ± 0.13 | protein stability index (san1∆): 3.03 ± 0.11 | protein stability index (ubr1∆): 3.28 ± 0.073

QAPFSTSTKDKNSSTSN [MED1]
protein stability index (doa10∆): 3.11 ± 0.062 | protein stability index (pdr5∆): 3.24 ± 0.068 | protein stability index (san1∆): 3.12 ± 0.054 | protein stability index (ubr1∆): 3.09 ± 0.048

TGETYQRFVGHKSDVMS [ASC1]
protein stability index (doa10∆): 2.73 ± 0.14 | protein stability index (pdr5∆): 3.09 ± 0.069 | protein stability index (san1∆): 2.6 ± 0.096 | protein stability index (ubr1∆): 2.94 ± 0.093

NTLNIDNTARVIFDASI [BRN1]
protein stability index (doa10∆): 2.14 ± 0.05 | protein stability index (pdr5∆): 2.28 ± 0.039 | protein stability index (san1∆): 2.23 ± 0.056 | protein stability index (ubr1∆): 2.37 ± 0.032

FKKLTKDIFRYMQRTVE [RPB2]
protein stability index (doa10∆): 1.63 ± 0.045 | protein stability index (pdr5∆): 1.4 ± 0.034 | protein stability index (san1∆): 1.25 ± 0.087 | protein stability index (ubr1∆): 1.36 ± 0.033

AFTRKQANQVKRHSYAQ [RPS1A]
protein stability index (doa10∆): 1.8 ± 0.024 | protein stability index (pdr5∆): 1.75 ± 0.024 | protein stability index (san1∆): 2.03 ± 0.034 | protein stability index (ubr1∆): 2.01 ± 0.027

ISLPKGKGIKLSIAEER [RPS4A]
protein stability index (doa10∆): 2.03 ± 0.15 | protein stability index (pdr5∆): 2.18 ± 0.28 | protein stability index (san1∆): 2.62 ± 0.081 | protein stability index (ubr1∆): 2.47 ± 0.077

LFPNELYNVMGINKKKL [RPC31]
protein stability index (doa10∆): 3.09 ± 0.27 | protein stability index (pdr5∆): 2.87 ± 0.24 | protein stability index (san1∆): 3.29 ± 0.082 | protein stability index (ubr1∆): 3.5 ± 0.26

MNGRSLTYAQQQLNKQR [SNF6]
protein stability index (doa10∆): 3.28 ± 0.26 | protein stability index (pdr5∆): 3.36 ± 0.14 | protein stability index (san1∆): 3.02 ± 0.15 | protein stability index (ubr1∆): 3.23 ± 0.15

KASVTIVFDNTDKSNSP [SMC2]
protein stability index (doa10∆): 2.99 ± 0.045 | protein stability index (pdr5∆): 3.02 ± 0.044 | protein stability index (san1∆): 2.9 ± 0.042 | protein stability index (ubr1∆): 3.156 ± 0.028

QELKADSPFSLICQNNL [SRP72]
protein stability index (doa10∆): 2.53 ± 0.078 | protein stability index (pdr5∆): 2.56 ± 0.064 | protein stability index (san1∆): 2.66 ± 0.054 | protein stability index (ubr1∆): 2.85 ± 0.049

IVNNDLPTTVVSNPGDN [MED2]
protein stability index (doa10∆): 2.84 ± 0.051 | protein stability index (pdr5∆): 2.96 ± 0.052 | protein stability index (san1∆): 2.82 ± 0.052 | protein stability index (ubr1∆): 3.02 ± 0.033

PFSEGVTFSVMPPKKSW [SMC4]
protein stability index (doa10∆): 2.48 ± 0.091 | protein stability index (pdr5∆): 2.03 ± 0.074 | protein stability index (san1∆): 2.2 ± 0.11 | protein stability index (ubr1∆): 2.57 ± 0.077

ASLKIKNATDLQQAKLR [SMC3]
protein stability index (doa10∆): 3.11 ± 0.12 | protein stability index (pdr5∆): 2.96 ± 0.11 | protein stability index (san1∆): 2.93 ± 0.13 | protein stability index (ubr1∆): 3.09 ± 0.095

TGLCSFDYSVILNSIPA [YJL039C/NUP192]
protein stability index (doa10∆): 1.6 ± 0.052 | protein stability index (pdr5∆): 1.51 ± 0.059 | protein stability index (san1∆): 1.49 ± 0.095 | protein stability index (ubr1∆): 1.28 ± 0.045

— the supplement of paper PMC9732359
